Source: patent US20250163117A1 (CURE GENETICS, published 2025)

How the values were obtained:
Assay in all cases: cell-based or functional assay
[1] = target: T1, human intermediate-affinity IL-2 receptor IL-2Rβγ on cells (human, UniProt P14784 27-551; P31785 23-369)
T1 sequence (looked up) 1: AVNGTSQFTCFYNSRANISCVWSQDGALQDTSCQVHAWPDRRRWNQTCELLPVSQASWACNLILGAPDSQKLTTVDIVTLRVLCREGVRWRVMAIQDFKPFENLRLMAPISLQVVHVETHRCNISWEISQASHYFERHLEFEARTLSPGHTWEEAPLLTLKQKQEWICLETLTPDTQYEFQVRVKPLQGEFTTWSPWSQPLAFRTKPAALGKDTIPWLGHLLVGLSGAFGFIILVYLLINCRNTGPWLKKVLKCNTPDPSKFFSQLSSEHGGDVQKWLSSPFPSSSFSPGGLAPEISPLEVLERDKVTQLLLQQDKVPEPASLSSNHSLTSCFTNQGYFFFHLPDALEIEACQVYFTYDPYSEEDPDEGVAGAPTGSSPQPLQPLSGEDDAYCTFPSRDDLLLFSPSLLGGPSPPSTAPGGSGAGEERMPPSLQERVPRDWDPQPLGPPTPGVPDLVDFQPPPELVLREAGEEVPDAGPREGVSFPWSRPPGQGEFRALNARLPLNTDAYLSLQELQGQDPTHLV
T1 sequence (looked up) 2: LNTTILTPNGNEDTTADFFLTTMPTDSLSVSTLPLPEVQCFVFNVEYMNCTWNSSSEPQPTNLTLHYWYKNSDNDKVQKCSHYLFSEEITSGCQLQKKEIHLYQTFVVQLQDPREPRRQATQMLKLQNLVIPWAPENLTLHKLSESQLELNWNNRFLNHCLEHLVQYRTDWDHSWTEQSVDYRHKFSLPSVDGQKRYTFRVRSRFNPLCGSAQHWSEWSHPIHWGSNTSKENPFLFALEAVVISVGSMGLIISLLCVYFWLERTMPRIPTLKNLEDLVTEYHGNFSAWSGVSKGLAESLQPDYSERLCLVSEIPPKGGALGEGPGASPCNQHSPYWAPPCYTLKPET

[2] = target: T2, human high-affinity IL-2 receptor IL-2Rαβγ on cells (human, UniProt P01589 22-272; P14784 27-551; P31785 23-369)
T2 sequence (looked up) 1: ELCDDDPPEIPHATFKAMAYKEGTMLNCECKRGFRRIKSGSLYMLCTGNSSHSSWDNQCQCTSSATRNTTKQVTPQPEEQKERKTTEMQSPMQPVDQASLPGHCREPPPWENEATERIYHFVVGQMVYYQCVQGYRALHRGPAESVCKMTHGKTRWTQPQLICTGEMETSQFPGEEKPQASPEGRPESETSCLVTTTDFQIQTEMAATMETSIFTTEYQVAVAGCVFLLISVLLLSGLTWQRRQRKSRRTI
T2 sequence (looked up) 2: T1 sequence (looked up) 1
T2 sequence (looked up) 3: T1 sequence (looked up) 2

[3] = target: T3, mouse high-affinity IL-2 receptor IL-2Rαβγ on cells (mouse, UniProt P01590 22-268; P16297 27-539; P34902 23-369)
T3 sequence (looked up) 1: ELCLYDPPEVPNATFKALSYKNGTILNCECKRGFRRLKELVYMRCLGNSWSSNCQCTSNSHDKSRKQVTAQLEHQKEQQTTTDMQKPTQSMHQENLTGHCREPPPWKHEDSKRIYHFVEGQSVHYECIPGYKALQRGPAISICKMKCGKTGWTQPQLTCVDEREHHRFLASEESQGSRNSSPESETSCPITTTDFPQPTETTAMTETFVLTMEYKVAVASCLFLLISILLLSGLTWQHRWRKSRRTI
T3 sequence (looked up) 2: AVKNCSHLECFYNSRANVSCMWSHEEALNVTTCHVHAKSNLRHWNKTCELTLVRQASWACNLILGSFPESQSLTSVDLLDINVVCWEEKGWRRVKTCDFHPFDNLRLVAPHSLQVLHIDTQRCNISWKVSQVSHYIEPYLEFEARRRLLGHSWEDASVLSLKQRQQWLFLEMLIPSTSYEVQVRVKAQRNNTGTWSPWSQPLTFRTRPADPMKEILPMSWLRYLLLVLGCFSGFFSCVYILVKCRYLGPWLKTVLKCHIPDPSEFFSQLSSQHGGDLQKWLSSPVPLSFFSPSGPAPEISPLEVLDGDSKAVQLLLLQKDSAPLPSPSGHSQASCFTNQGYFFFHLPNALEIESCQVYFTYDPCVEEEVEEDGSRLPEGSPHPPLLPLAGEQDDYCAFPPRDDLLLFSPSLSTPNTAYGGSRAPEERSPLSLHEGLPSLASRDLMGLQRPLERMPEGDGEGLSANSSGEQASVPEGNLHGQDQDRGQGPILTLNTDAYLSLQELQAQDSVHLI
T3 sequence (looked up) 3: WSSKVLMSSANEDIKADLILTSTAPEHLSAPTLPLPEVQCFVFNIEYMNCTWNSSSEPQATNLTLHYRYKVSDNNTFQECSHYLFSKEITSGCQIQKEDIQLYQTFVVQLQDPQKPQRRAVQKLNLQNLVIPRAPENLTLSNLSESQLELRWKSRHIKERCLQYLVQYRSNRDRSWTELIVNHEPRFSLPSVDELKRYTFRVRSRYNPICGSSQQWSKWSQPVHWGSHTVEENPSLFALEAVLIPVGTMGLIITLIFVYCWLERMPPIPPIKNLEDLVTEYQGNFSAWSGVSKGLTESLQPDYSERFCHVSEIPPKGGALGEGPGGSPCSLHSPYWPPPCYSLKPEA

[4] = target: T4, mouse intermediate-affinity IL-2 receptor IL-2Rβγ on cells (mouse, UniProt P16297 27-539; P34902 23-369)
T4 sequence (looked up) 1: T3 sequence (looked up) 2
T4 sequence (looked up) 2: T3 sequence (looked up) 3

[5] = target: T1, human intermediate-affinity IL-2 …; remark: listed apart in the source
[6] = target: T2, human high-affinity IL-2 receptor …; remark: listed apart in the source

- EC50 of STAT5 activation, human CD8 T cells (flow cytometry) [1]: 18.6 nM
- EC50 of STAT5 activation, human NK cells (flow cytometry) [1]: 5.11 nM
- EC50 of STAT5 activation, human Tregs (flow cytometry) [2]: 7.91 nM
- EC50 of STAT5 activation, mouse Tregs (flow cytometry) [3]: 52 nM
- EC50 of STAT5 activation, mouse CD8 T cells (flow cytometry) [4]: 91.8 nM
- EC50 of STAT5 activation, mouse NK cells (flow cytometry) [4]: 84 nM
- % pSTAT5 in human PBMC at High IL-2v concentration (25 nM per paragraph 254); western blot, pSTAT5/STAT5 normalised to 001 High [5]: 66.9%
- % pSTAT5 in human PBMC at Low IL-2v concentration (2.5 nM per paragraph 254); western blot, pSTAT5/STAT5 normalised to 001 High [6]: 10.9%
B1: CP-trIL-2 012 (ligand)
chain: PTSSSTKKTQLQLEHLLLDLQMILNGINNYKNPLRPRDLISNINVIVLELKGSETTELKHLQSLEEELKDLEEVLNLAQSKNFHTIVEFLNRWITFSQSIISTLT
notes: H1-H3-H2-H4; loops 1 and 2 removed; de-Ala1, C58S, C125S, P65D
